± gives the uncertainty stated by the source.
B1: Serine/threonine-protein kinase LATS1, residues 98 to 141; numbered along this chain, O95835 (parent)
chain: TSEVNPQMLQDLQAAGFDEDMVIQALQKTNNRSIEAAIEFISKM
B2: Apoptosis-associated speck-like protein containing a CARD, residues 114 to 194; numbered along this chain, Q9ULZ3 (parent)
chain: FIDQHRAALIARVTNVEWLLDALYGKVLTDEQYQAVRAEPTNPSKMRKLFSFTPAWNWTCKDLLLQALRESQSYLVEDLER

Variants of: B1
Test: abundance fitness (aPCA) (normalised: wild type 0, dead -1); higher = more abundant; growth selection in yeast, the domain comes from the species named
Conditions: Homo sapiens

Row | Variant | abundance fitness
1 | M44S | -0.04 ± 0.059
2 | M44Q | 0.055 ± 0.075
3 | M44R | -0.057 ± 0.039
4 | N31E | -0.253 ± 0.042
5 | N31S | 0.049 ± 0.038
6 | N31D | -0.506 ± 0.081
7 | E19G | -0.103 ± 0.035
8 | E19Q | -0.012 ± 0.044
9 | E19P | -0.104 ± 0.043
10 | T29M | -0.919 ± 0.1
11 | T29R | -0.715 ± 0.041
12 | T29C | -0.375 ± 0.043
13 | T29I | -0.589 ± 0.073
14 | Q24S | -0.196 ± 0.043
15 | Q24K | 0.035 ± 0.06
16 | I38S | -0.113 ± 0.042
17 | I38P | -0.147 ± 0.056
18 | I38R | 0.003 ± 0.03
19 | L9K | 0.136 ± 0.05
20 | L9F | -0.082 ± 0.051
21 | L9N | -0.445 ± 0.12
22 | L9P | -0.53 ± 0.1
23 | A37G | -0.401 ± 0.032
24 | A37Y | -0.762 ± 0.19
25 | A37H | -0.621 ± 0.18
26 | A37P | -0.42 ± 0.1

Row | Variant | abundance fitness
27 | A37T | -0.391 ± 0.08
28 | A14R | -0.095 ± 0.033
29 | A14Y | -0.339 ± 0.12
30 | A14C | -0.325 ± 0.053
31 | A14T | -0.206 ± 0.051
32 | I34H | -0.077 ± 0.06
33 | I34S | -0.189 ± 0.044
34 | E3Q | -0.138 ± 0.048
35 | E3L | -0.326 ± 0.046
36 | E3P | -0.079 ± 0.049
37 | E3G | -0.117 ± 0.034
38 | E3N | -0.119 ± 0.14
39 | E39K | -0.115 ± 0.056
40 | E39N | -0.111 ± 0.069
41 | E39Q | -0.166 ± 0.042
42 | E39R | -0.224 ± 0.033
43 | E35W | -0.473 ± 0.049
44 | E35V | -0.468 ± 0.04
45 | E35P | -0.164 ± 0.055
46 | D20M | -0.168 ± 0.046
47 | D20K | 0 ± 0.088
48 | D20P | -0.166 ± 0.055
49 | D20V | -0.261 ± 0.043
50 | P6S | -0.052 ± 0.05
51 | P6Y | -0.119 ± 0.064
52 | P6D | 0.007 ± 0.066

Row | Variant | abundance fitness
53 | P6A | 0.037 ± 0.035
54 | P6M | 0.005 ± 0.039
55 | A36G | -0.195 ± 0.031
56 | A36Q | -0.267 ± 0.056
57 | A36L | -0.388 ± 0.034
58 | A36D | -0.068 ± 0.058
59 | T1Q | -0.062 ± 0.1
60 | Q10M | -0.128 ± 0.043
61 | Q10H | 0.019 ± 0.14
62 | V22F | -0.807 ± 0.17
63 | V22S | 0.183 ± 0.041
64 | K43T | -0.004 ± 0.045
65 | K43V | -0.135 ± 0.04
66 | S2Y | -0.231 ± 0.086
67 | S2V | -0.311 ± 0.039
68 | S2R | -0.054 ± 0.034
69 | S2K | 0.021 ± 0.059
70 | S2T | 0.075 ± 0.046
71 | S2D | -0.082 ± 0.058
72 | S2H | -0.168 ± 0.14
73 | S2A | -0.07 ± 0.04
74 | N30L | -1.14 ± 0.097
75 | N30H | -0.206 ± 0.24
76 | N30M | -0.553 ± 0.065
77 | I41S | -0.217 ± 0.043
78 | I41E | -0.165 ± 0.042

Row | Variant | abundance fitness
79 | I41G | -0.282 ± 0.032
80 | I41Q | -0.286 ± 0.049
81 | Q13V | 0.067 ± 0.038
82 | Q13L | 0.104 ± 0.038
83 | Q13T | -0.002 ± 0.061
84 | Q13C | 0.037 ± 0.049
85 | Q27W | -0.57 ± 0.042
86 | Q27D | -0.151 ± 0.065
87 | Q27R | -0.042 ± 0.031
88 | Q27M | -0.123 ± 0.044
89 | Q7I | -0.223 ± 0.05
90 | Q7V | -0.147 ± 0.034
91 | Q7C | -0.354 ± 0.073
92 | M8P | -0.717 ± 0.067
93 | M8D | -0.419 ± 0.074
94 | M8C | -0.778 ± 0.37
95 | G16T | -0.72 ± 0.073
96 | A15H | -0.36 ± 0.11
97 | A15D | -0.358 ± 0.068
98 | F40P | -0.157 ± 0.055
99 | F40T | -0.16 ± 0.045
100 | F40I | -0.171 ± 0.057
101 | F40G | -0.163 ± 0.032
102 | F40E | 0.103 ± 0.037
103 | F40W | 0.075 ± 0.038
104 | K28P | -0.74 ± 0.072

Row | Variant | abundance fitness
105 | K28I | -0.445 ± 0.13
106 | K28F | -0.148 ± 0.05
107 | K28E | 0.034 ± 0.039
108 | K28Y | -0.027 ± 0.075
109 | K28R | -0.048 ± 0.035
110 | K28L | -0.366 ± 0.038
111 | K28C | -0.129 ± 0.05
112 | K28H | 0.073 ± 0.054
113 | A25S | -0.295 ± 0.035
114 | A25Y | -0.554 ± 0.067
115 | A25I | -0.631 ± 0.24
116 | A25D | -0.541 ± 0.088
117 | A25V | -0.68 ± 0.05
118 | A25Q | -0.697 ± 0.088
119 | D18N | -0.21 ± 0.059
120 | D18Y | -0.837 ± 0.11
121 | D18V | -0.597 ± 0.044
122 | V4I | -0.15 ± 0.12
123 | V4P | -0.057 ± 0.054
124 | V4G | -0.388 ± 0.035
125 | S33F | -0.628 ± 0.16
126 | S33Y | -0.735 ± 0.14
127 | S33V | -1.29 ± 0.13
128 | S33C | -0.467 ± 0.09
129 | S33L | -1.25 ± 0.092
130 | S33D | -0.4 ± 0.05

Row | Variant | abundance fitness
131 | I23F | -0.261 ± 0.16
132 | I23Q | -0.158 ± 0.049
133 | I23P | -0.591 ± 0.095
134 | I23L | -0.188 ± 0.044
135 | I23G | -0.322 ± 0.034
136 | I23H | -0.314 ± 0.064
137 | L12V | -0.562 ± 0.039
138 | F17I | -0.399 ± 0.086
139 | F17L | -0.342 ± 0.038
140 | F17C | -0.488 ± 0.07
141 | N5K | -0.638 ± 0.052
142 | N5F | -1.21 ± 0.2
143 | N5P | -0.637 ± 0.052
144 | S42L | -0.248 ± 0.045
145 | S42D | 0.033 ± 0.05
146 | S42C | -0.258 ± 0.11
147 | S42K | 0.055 ± 0.077
148 | D11E | 0.091 ± 0.043
149 | D11H | -0.182 ± 0.065
150 | D11L | -0.153 ± 0.036
151 | M21L | 0.032 ± 0.042
152 | M21H | -0.294 ± 0.12
153 | M21A | -0.019 ± 0.045

Variants of: B2
Test: as above
Conditions: Homo sapiens

Row | Variant | abundance fitness
154 | W18D | 0.18 ± 0.097
155 | W18F | 0.213 ± 0.091
156 | L79Q | -0.706 ± 0.17
157 | P54F | 0.057 ± 0.14
158 | P54S | 0.044 ± 0.06
159 | A38W | -0.861 ± 0.16
160 | A38I | -0.413 ± 0.1
161 | A38E | -0.15 ± 0.078
162 | V76S | -1.05 ± 0.25
163 | V76R | -0.92 ± 0.13
164 | F50H | -0.948 ± 0.31
165 | F50R | -0.81 ± 0.086
166 | F50N | -0.775 ± 0.33
167 | C60T | 0.009 ± 0.051

From the Human Domainome abundance scans (Beltran et al. 2025)
